Reference: patent JP2004500847A (dated 2004)
Several values for one entry are separate records, joined by “and”; a condition that tells them apart may be missing. Equal entries are not always repeated.

Tests used:
[1] = biological target: HLA-DR on the human B lymphoblastoid cell line LG-2 (human); experiment: flow cytometry on LG-2 cells, 35 ug Fab first; competitor 1-1C4 (2 ug)
[2] = biological target: T1, human MHC class II DR protein (DRA*0101/DRB1*0401) purified from Priess cells (human, UniProt P01903 26-254; P01911 30-266, limits assumed); experiment: SPR (Biacore), DR protein on the chip
T1 construct: mature; Native heterodimer isolated from cell lysate; Coated on ELISA plates or coupled to a BIAcore CM5 chip; also called HLA-DR protein; MHC-class II DRA*0101/DRB1*0401
T1 MHC II alpha: not shown
T1 MHC II beta: not shown

[3] = biological target: HLA-DR on HLA-DR-positive cell lines (GRANTA-519, MHH-CALL4, Priess or LG2; allotype not stated) (human); experiment: cell-based or functional assay

B1: MS-GPC-8-Fab (Fab, V domains shown)
VH: QVQLKESGPALVKPTQTLTLTCTFSGFSLSTSGVGVGWIRQPPGKALEWLALIDWDDDKYYSTSLKTRLTISKDTSKNQVVLTMTNMDPVDTATYYCARSPRYRGAFDYWGQGTLVTVSS
VL: DIVLTQPPSVSGAPGQRVTISCSGSSSNIGSNYVSWYQQLPGTAPKLLIYDNNQRPSGVPDRFSGSKSGTSASLAITGLQSEDEADYYCQSYDMPQAVFGGGTKLTVLG
Binder B1 has a decrease of binding of the mouse antibody [1] of 50%, a Kd [2] of 346 nM and an EC50 of cell killing (Priess or LG2 cells), as concentration of the bivalent cross-linked (Fab) dimer [3] of less than 60 nM. For the same binder, the EC50 of cell killing (Priess or LG2 cells), as concentration of the monovalent fragment, cross-linked with anti-FLAG M2 [3] was less than 120 nM, the EC50 of cell killing (concentration of the bivalent cross-linked Fab dimer; cell line not named here) [3] was 20 nM and 40 nM and the maximal killing of MHH-CALL 4 cells [3] was 65%.
